T1: GIP(3-42) (Homo sapiens, UniProt P09681)
T1 sequence (P09681 54-93): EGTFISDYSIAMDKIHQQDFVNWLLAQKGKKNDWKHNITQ

T2: GIP(1-42) (Homo sapiens, UniProt P09681)
T2 sequence (P09681 52-93): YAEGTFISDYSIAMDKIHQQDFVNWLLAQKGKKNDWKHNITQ


Assays:
[1] = tested on: leptin receptor deficient C57BLKS/J male mice (db/db mice); assay: Rotarod (motor control function) test after 28-day administration of GIP or GIP-binding anti-GIP antibody; assay type: in vivo, mouse; conditions: intraperitoneal daily for 28 days, GIP 5 nmol/kg, anti-GIP antibody 1 mg/kg, rotarod 6-28 rpm, compared to control group, FIG. 2
Description: Six-week-old leptin receptor deficient C57BLKS/J male mice (db/db mice, Oriental Yeast Co., Ltd.) were transferred (room temperature: 23° C., humidity: 55±10%, light period: 7:00 to 19:00) and were fed with food and water ad libitum. The food was CE-2 (CLEA Japan, Inc.), and the mice were acclimated for 2 weeks under the above-mentioned environment and were then used for testing.
Mouse-derived GIP (manufactured by AnaSpec, Inc.) was dissolved in physiological saline at a concentration of 500 nM to give a GIP solution. […]
Physiological saline (control group), the GIP solution (5 nmol/kg body weight). […] After administration for 28 days, the motor control function was measured by a rotarod test.
The motor control function (the accommodation ability reflecting balance ability and agility) was evaluated by measuring the capacity of staying on a rod rotating at various speeds using a rotarod (MK-600A, manufactured by Muromachi Kikai Co., Ltd.). Each mouse was placed on a stationary rod, and the number of times of falling was measured with a program of 6 rpm (1 min)→12 rpm (1 min)→16 rpm (1 min)→20 rpm (1 min)→24 rpm (1 min)→28 rpm (1 min). […]

[2] = tested on: aged C57BL/6J male mice (115-week-old); assay: Rotarod (motor control function) test in aged mice given anti-GIP antibody; assay type: in vivo, mouse; conditions: C57BL/6J mice, 0.5 mg/kg intraperitoneal once a week, tested at 115-week-old, FIG. 4
Description: Four-week-old C57BL/6J male mice (CLEA Japan, Inc.) were transferred (room temperature: 23° C., humidity: 55±10%, light period: 7:00 to 19:00) and were fed with food (D12450K, Research Diets, Inc.) and water ad libitum for 111 weeks.
The anti-active GIP antibody produced in Production Example 1 was dissolved in physiological saline at a concentration of 0.05 mg/mL to give an anti-GIP antibody solution.
Physiological saline (control group) or the anti-GIP antibody solution (0.5 mg/kg body weight) (anti-GIP antibody administration group) was intraperitoneally administered to C57BL/6J mice (107-week-old) once a week (9:00 to 10:00 a.m.), 8 times (8 weeks) in total.
The motor control function (the accommodation ability reflecting balance ability and agility) was evaluated by measuring the capacity of staying on a rod rotating at various speeds using a rotarod (MK-600A, manufactured by Muromachi Kikai Co., Ltd.). The test was performed for 50-week-old mice (non-administration group) and 115-week-old mice (non-administration group, control group, and anti-GIP antibody administration group). Each mouse was placed on a stationary rod, and the number of times of falling was measured with a program of 6 rpm (1 min)→12 rpm (1 min)→16 rpm (1 min)→20 rpm (1 min)→24 rpm (1 min)→28 rpm (1 min).
The analysis results were shown as the average value (Ave.)±standard error (SE). […]

[3] = molecular target: T3, PEGylated N-terminus 15 amino acids of active GIP (GIP(1-15)) (Homo sapiens, UniProt P09681); assay: Hybridoma screening ELISA with immobilized antigen (1); assay type: binding; conditions: hybridoma culture supernatant
T3 construct: PEGylated N-terminus 15 amino acids of active GIP (GIP(1-15)) was used as an antigen (1) for measurement; made in house; host or cells: synthetic peptide (no expression host)
Description: (§1) Polyethylene glycol was added to N-terminus 15 amino acids of active GIP (GIP(1-15)) (PEGylation (polyethylene glycolation)), and keyhole limpet hemocyanin (KLH) was then chemically bonded thereto to produce KLH-linked PEGylated GIP (1-15) as an immunogen.
(§2) The reaction between the hybridoma culture supernatant and the antigen (1) and (2) for measurement was evaluated by ELISA using immobilized antigen (1) and (2), and hybridomas that are positive for the antigen (1) and negative for the antigen (2) were selected as anti-active GIP monoclonal antibody-producing hybridomas.
(§3) Antibody-producing hybridoma was cloned by culturing the hybridomas obtained above through a limiting dilution method to obtain single colonies, and single colony-forming wells were subjected to ELISA again to establish 9B9H5-B9 line, which produces an antibody that is positive for the antigen (1) and negative for the antigen (2) (WO 2016/104439).

[4] = molecular target: T1, GIP(3-42); assay: Sandwich ELISA, cross-reactivity with inactive GIP; assay type: binding; conditions: biotinylated antibody 1 μg/mL as detection antibody; GIP 8.2 to 2000 pg/mL; FIG. 1
Description: (§4) The reactivity between the monoclonal antibody prepared in Production Example 1 and active GIP was confirmed by ELISA. The amino group of the anti-active GIP monoclonal antibody was biotinylated with NH2 group biotinylation kit (manufactured by Dojindo Laboratories). ELISA was performed using the produced biotinylated anti-active GIP monoclonal antibody at 1 μg/mL instead of a detection antibody, GIP detection antibody (biotinylated anti-total GIP monoclonal antibody), included in Human (total) GIP ELISA kit (manufactured by EMD Millipore Corporation). A […] dilution series of GIP(1-42) or GIP(3-42) was prepared in 6 steps (8.2 to 2000 pg/mL) with a 2000 pg/mL solution as the highest concentration. By using an anti-total GIP monoclonal antibody (included in Human GIP (total) ELISA kit manufactured by EMD Millipore Corporation) as a capture antibody, the biotinylated anti-active GIP monoclonal antibody as a detection antibody, and a peroxidase-streptavidin conjugate for detection, sandwich ELISA was conducted to prepare a calibration curve with GIP concentration on the X-axis and 450 nm-590 nm absorbance on the Y-axis (FIG. 1).

[5] = molecular target: T2, GIP(1-42); assay: Sandwich ELISA, reactivity with active GIP; assay type: binding; conditions: biotinylated antibody 1 μg/mL as detection antibody; GIP 8.2 to 2000 pg/mL; FIG. 1
Description: as §4

[6] = molecular target: T4, PEGylated N-terminus 13 amino acids of inactive GIP (GIP(3-15)) (Homo sapiens, UniProt P09681); assay: Hybridoma screening ELISA with immobilized antigen (2); assay type: binding; conditions: hybridoma culture supernatant
T4 construct: made in house; host or cells: synthetic peptide (no expression host)
Description: as §1, §2, §3

ELISA reaction with antigen (1) [3]	cross-reactivity with GIP(3-42) (450 nm-590 nm absorbance) [4]	ELISA reaction with antigen (2) [6]	Molecule	decrease in the motor control function (increase in the number of times of falling with an increase of the rotation speed) [1]	motor control function (number of times of falling) compared to non-administration and control 115-week-old groups ([2]; 8 times from 107-week-old, rotarod 6-28 rpm)	motor control function relative to the non-administration (50-week-old) group ([2]; 8 times)	reactivity with GIP(1-42) (450 nm-590 nm absorbance) [5]
–	–	–	GIP: Mouse-derived GIP (manufactured by AnaSpec, Inc.), gastric inhibitory polypeptide, dissolved in physiological saline at 500 nM (YAEGTFISDYSIAMDKIRQQDFVNWLLAQRGKKSDWKHNITQ)	significant decrease	–	–	–
positive	does not show cross-reactivity	negative	monoclonal antibody prepared in Production Example 1: Mouse monoclonal anti-active GIP antibody produced by hybridoma 9B9H5-B9 line; H-chain variable region SEQ ID NO: 2, L-chain variable region SEQ … (antibody, listed as Mus musculus, V domains shown) VH: QVQLQQPGAELVKPGASVKLSCKASGYTFTSFWMHWVIQRPGQGLEWIGEMNPSDGRTHFNEKFKTKATLTIDTSSNTAYMELNSLTSEDSAVYYCARRMEDWGQGTLVTVSA VL: DIKMTQSPSSMYASLGERVTITCKASQDINSYLGWFQQKPGKSPKTLIYGANRLVDGVPSRFSGSGSGQDYSLTISSLEYDDMGIYYCLQYDEFPLTFGAGTKLELKR	–	improvement in the motor control function was observed	equivalent to that of the non-administration (50-week-old) group	capable of specifically detecting GIP(1-42)
